Experimental data reported in article PMC11098746 (2024).

B1: ADP120 (protein)
chain: MAGVGAGPLRAMGRQALLLLALCATGAQGLYFHIGETEKRCFIEEIPDETMVIGNYRTQMWDKQKEVFLPSTPGLGMHVEVKDPDGKVVLSRQYGSEGRFTFTSHTPGDHQICLHSNSTRMALFAGGKLRVHLDIQVGEHANNYPEIAAKDKLTELQLRARQLLDQVEQIQKEQDYQRYREERFRLTSESTNQR
modifications: bait human Fc-tagged dimer
B2: ADP296 (protein)
chain: MARERGALSRASRALRLAPFVYLLLIQTDPLEGVNITSPVRLIHGTVGKSALLSVQYSSTSSDRPVVKWQLKRDKPVTVVQSIGTEVIGTLRPDYRDRIRLFENGSLLLSDLQLADEGTYEVEISITDDTFTGEKTINLTVDVPISRPQVLVASTTVLELSEAFTLNCSHENGTKPSYTWLKDGKPLLNDSRMLLSPDQKVLTITRVLMEDDDLYSCMVENPISQGRSLPVKITVYRRSS
modifications: bait human Fc-tagged dimer
B3: ADP352 (protein)
chain: MGHLSAPLHRVRVPWQGLLLTASLLTFWNPPTTAQLTTESMPFNVAEGKEVLLLVHNLPQQLFGYSWYKGERVDGNRQIVGYAIGTQQATPGPANSGRETIYPNASLLIQNVTQNDTGFYTLQVIKSDLVNEEATGQFHVYPELPKPSISSNNSNPVEDKDAVAFTCEPETQDTTYLWWINNQSLPVSPRLQLSNGNRTLTLLSVTRNDTGPYECEIQNPVSANRSDPVTLNVTYGPDTPTISPSDTYYRPGANLSLSCYAASNPPAQYSWLINGTFQQSTQELFIPNITVNNSGSYTCHANNSVTGCNRTTVKTIIVTELSPVVAKPQIKASKTTVTGDKDSVNLTCSTNDTGISIRWFFKNQSLPSSERMKLSQGNTTLSINPVKREDAGTYWCEVFNPISKNQSDPIMLNVNYNALPQENGLSPG
modifications: bait human Fc-tagged dimer
B4: ADP374 (protein)
chain: MKETLYDEVLAKQKREQKLIPTKTDKKKAEKKKNKKKEIQNGNLHESDSESVPRDFKLSDALAVEDDQVAPVPLNVVETSSSVRERKKKEKKQKPVLEEQVIKESDASKIPGKKVEPVPVTKQPTPPSEAAASKKKPGQKKSKNGSDDQDKKVETLMVPSKRQEALPLHQETKQESGSGKKKASSKKQKTENVFVDEPLIHATTYIPLMDNADSSPVVDKREVIDLLKPDQVEGIQKSGTKKLKTETDKENAEVKFKDFLLSLKTMMFSEDEALCVVDLLKEKSGVIQDALKKSSKGELTTLIHQLQEKDKLLAAVKEDAAATKDRCKQLTQEMMTEKERSNVVITRMKDRIGTLEKEHNVFQNKIHVSYQETQQMQMKFQQVREQMEAEIAHLKQENGILRDAVSNTTNQLESKQSAELNKLRQDYARLVNELTEKTGKLQQEEVQKKNAEQAATQLKVQLQEAERRWEEVQSYIRKRTAEHEAAQQDLQSKFVAKENEVQSLHSKLTDTLVSKQQLEQRLMQLMESEQKRVNKEESLQMQVQDILEQNEALKAQIQQFHSQIAAQTSASVLAEELHKVIAEKDKQIKQTEDSLASERDRLTSKEEELKDIQNMNFLLKAEVQKLQALANEQAAAAHELEKMQQSVYVKDDKIRLLEEQLQHEISNKMEEFKILNDQNKALKSEVQKLQTLVSEQPNKDVVEQMEKCIQEKDEKLKTVEELLETGLIQVATKEEELNAIRTENSSLTKEVQDLKAKQNDQVSFASLVEELKKVIHEKDGKIKSVEELLEAELLKVANKEKTVQDLKQEIKALKEEIGNVQLEKAQQLSITSKVQELQNLLKGKEEQMNTMKAVLEEKEKDLANTGKWLQDLQEENESLKAHVQEVAQHNLKEASSASQFEELEIVLKEKENELKRLEAMLKERESDLSSKTQLLQDVQDENKLFKSQIEQLKQQNYQQASSFPPHEELLKVISEREKEISGLWNELDSLKDAVEHQRKKNNDLREKNWEAMEALASTEKMLQDKVNKTSKERQQQVEAVELEAKEVLKKLFPKVSVPSNLSYGEWLHGFEKKAKECMAGTSGSEEVKVLEHKLKEADEMHTLLQLECEKYKSVLAETEGILQKLQRSVEQEENKWKVKVDESHKTIKQMQSSFTSSEQELERLRSENKDIENLRREREHLEMELEKAEMERSTYVTEVRELKDLLTELQKKLDDSYSEAVRQNEELNLLKAQLNETLTKLRTEQNERQKVAGDLHKAQQSLELIQSKIVKAAGDTTVIENSDVSPETESSEKETMSVSLNQTVTQLQQLLQAVNQQLTKEKEHYQVLE
modifications: bait human Fc-tagged dimer
B5: ADP262 (protein)
chain: QNSQLQEELRGLRETFSNFTASTEAQVKGLSTQGGNVGRKMKSLESQLEKQQKDLSEDHSSLLLHVKQFVSDLRSLSCQMAALQGNGSERTCCPVNWVEHERSCYWFSRSGKAWADADNYCRLEDAHLVVVTSWEEQKFVQHHIGPVNTWMGLHDQNGPWKWVDGTDYETGFKNWRPEQPDDWYGHGLGGGEDCAHFTDDGRWNDDVCQRPYRWVCETELDKASQEPPLL
modifications: bait human Fc-tagged dimer
B6: ADP358 (protein)
chain: MARSPGRAYALLLLLICFNVGSGLHLQVLSTRNENKLLPKHPHLVRQKRAWITAPVALREGEDLSKKNPIAKIHSDLAEERGLKITYKYTGKGITEPPFGIFVFNKDTGELNVTSILDREETPFFLLTGYALDARGNNVEKPLELRIKVLDINDNEPVFTQDVFVGSVEELSAAHTLVMKINATDADEPNTLNSKISYRIVSLEPAYPPVFYLNKDTGEIYTTSVTLDREEHSSYTLTVEARDGNGEVTDKPVKQAQVQIRILDVNDNIPVVENKVLEGMVEENQVNVEVTRIKVFDADEIGSDNWLANFTFASGNEGGYFHIETDAQTNEGIVTLIKEVDYEEMKNLDFSVIVANKAAFHKSIRSKYKPTPIPIKVKVKNVKEGIHFKSSVISIYVSESMDRSSKGQIIGNFQAFDEDTGLPAHARYVKLEDRDNWISVDSVTSEIKLAKLPDFESRYVQNGTYTVKIVAISEDYPRKTITGTVLINVEDINDNCPTLIEPVQTICHDAEYVNVTAEDLDGHPNSGPFSFSVIDKPPGMAEKWKIARQESTSVLLQQSEKKLGRSEIQFLISDNQGFSCPEKQVLTLTVCECLHGSGCREAQHDSYVGLGP
modifications: bait human Fc-tagged dimer
B7: ADP138 (protein)
chain: MAGKSSTRAVLLLLGIQLTALWPIAAVEIYTSRVLEAVNGTDARLKCTFSSFAPVGDALTVTWNFRPLDGGPEQFVFYYHIDPFQPMSGRFKDRVSWDGNPERYDASILLWKLQFDDNGTYTCQVKNPPDVDGVIGEIRLSVVHTVRFS
modifications: bait human Fc-tagged dimer
B8: ADP136 (protein)
chain: MVRIAGALRTLLPLLAALLQASVEASGEIALCKTGFPEDVYSAVLSKDVHEGQPLLNVKFSNCNGKRKVQYESSEPADFKVDEDGMVYAVRSFPLSSEHAKFLIYAQDKETQEKWQVAVKLSLKPTLTEESVKESAEVEEIVFPRQFSKHSGHLQRQKRDWVIPPINLPENSRGPFPQELVRIRSDRDKNLSLRYSVTGPGADQPPTGIFIINPISGQLSVTKPLDREQIARFHLRAHAVDINGNQVENPIDIVINVIDMNDNRPEFLHQVWNGTVPEGSKPGTYVMTVTAIDADDPNALNGMLRYRIVSQAPSTPSPNMFTINNETGDIITVAAGLDREKVQQYTLIIQATDMEGNPTYGLSNTATAVITVTDVNDNPPEFTAMTFYGEVPENRVDIIVANLTVTDKDQPHTPAWNAVYRISGGDPTGRFAIQTDPNSNDGLVTVVKPIDFETNRMFVLTVAAENQVPLAKGIQHPPQSTATVSVTVIDVNENPYFAPNPKIIRQEEGLHAGTMLTTFTAQDPDRYMQQNIRYTKLSDPANWLKIDPVNGQITTIAVLDRESPNVKNNIYNATFLASDNGIPPMSGTGTLQIYLLDINDNAPQVLPQEAETCETPDPNSINITALDYDIDPNAGPFAFDLPLSPVTIKRNWTITRLNGDFAQLNLKIKFLEAGIYEVPIIITDSGNPPKSNISILRVKVCQCDSNGDCTDVDRIVGAGLGT
modifications: bait human Fc-tagged dimer

Molecular target: Circumsporozoite protein (CSP) (Plasmodium falciparum (isolate 3D7), UniProt Q7K740)
Test: AVEXIS screen signal:noise (double-corrected)

Chain of Circumsporozoite protein (CSP) (Q7K740 19-374): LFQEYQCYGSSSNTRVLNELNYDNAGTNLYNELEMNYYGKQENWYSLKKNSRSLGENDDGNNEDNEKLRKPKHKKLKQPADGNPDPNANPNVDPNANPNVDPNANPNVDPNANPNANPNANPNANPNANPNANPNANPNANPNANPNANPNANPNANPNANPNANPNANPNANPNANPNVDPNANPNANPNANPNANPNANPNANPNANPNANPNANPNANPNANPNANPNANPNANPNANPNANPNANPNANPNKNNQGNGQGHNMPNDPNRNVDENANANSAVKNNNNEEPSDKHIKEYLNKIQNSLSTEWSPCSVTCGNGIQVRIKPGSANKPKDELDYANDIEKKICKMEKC

Binder	binding score
B1	0.957
B2	0.997
B3	1.31
B4	0.547
B5	0.921
B6	1.38
B7	0.831
B8	1.73
